± gives the standard deviation of the averaged measurements.
Assay: total protein half-life in vivo (active degradation + dilution); higher = more stable protein
[1] = E. coli NCM3722 delta-clpP delta-lon delta-hslV, growth: N-lim chemostat, doubling time 6 h
[2] = E. coli NCM3722 delta-clpP, growth: N-lim chemostat, doubling time 6 h
[3] = E. coli NCM3722 delta-hslV, growth: N-lim chemostat, doubling time 6 h
[4] = E. coli NCM3722 delta-lon, growth: N-lim chemostat, doubling time 6 h
[5] = E. coli NCM3722 delta-smpB, growth: N-lim chemostat, doubling time 6 h
[6] = wild type E. coli NCM3722, growth: C-lim chemostat, doubling time 3 h
[7] = wild type E. coli NCM3722, growth: C-lim chemostat, doubling time 6 h
[8] = wild type E. coli NCM3722, growth: C-lim chemostat, doubling time 12 h
[9] = wild type E. coli NCM3722, growth: N-lim chemostat, doubling time 6 h
[10] = wild type E. coli NCM3722, growth: N-lim chemostat, doubling time 12 h
[11] = wild type E. coli NCM3722, growth: P-lim chemostat, doubling time 6 h
[12] = wild type E. coli NCM3722, growth: P-lim chemostat, doubling time 12 h

With “MFSIKPGPRNLPIDNPTLLSWNITDGDLNSKLNTLEYLNCITNIINSCGVYPQGLKDREIISTFHAEKVINDLLKNDYKISLSPDTTYRELNKAAQRSITAPDRIGERKTWVYQRDTMIERGDNSGVYQYGRAEHFTHIISDKPSPKDKYVAYAINIPDYELAADVYNINVTSPSGQQETFKILINLEHLRQTLERKSLTAVQKSQCEIITPKKPGEAILHAFNATYQQIRENMSEFARCHYGYIQIPPVTTFRADGPETPEEEKGYWFHAYQPEDLCTIHNPMGDLQDFIALVKDAKKFGIDIIPDYTFNFMGIGGSGKNDLDYPSADIRAKISKDIEGGIPGYWQGQVLIPFIKDPVTKERKQIHPEDIHLTAKDFEASKDNISKDEWENLHALKEKRLNGMPKTTPKSDQVIMLQNQYVREMRKYGVRGLRYDAAKHSKHEQIERSITPPLKNYNERLHNTNLFNPKYHKKAVMNYMEYLVTCQLDEQQMSSLLYERDDLSAIDFSLLMKTIKAFSFGGDLQTLASKPGSTISSIPSERRILININHDFPNNGNLFNDFLFNHQQDEQLAMAYIAALPFSRPLVYWDGQVLKSTTEIKNYDGSTRVGGEAWLNKGCSTYQQLYNEFHALYIDKAGIWSAFEGVSATKNVLAFSRGDSVNINHSPHDGLVIINKGNEEVEGTWPNKLQPGIYKNMGSNSVNIIINNTRKIIPPGKVFTLRGGTLNINIPGRSALLLGKTGEPPNYLYL” the “total protein half-life in vivo” value [1] was 4.26 ± 0.095 h, the “total protein half-life in vivo” value [2] was 3.78 h and the “total protein half-life in vivo” value [3] was 3.6 ± 0.55 h. The “total protein half-life in vivo” value [4] was 3.86 ± 0.15 h, the “total protein half-life in vivo” value [5] was 3.93 ± 0.2 h and the “total protein half-life in vivo” value [6] was 3.14 ± 0.21 h. The “total protein half-life in vivo” value [7] was 4.93 h, the “total protein half-life in vivo” value [8] was 9.02 h and the “total protein half-life in vivo” value [9] was 3.51 h. The “total protein half-life in vivo” value [10] was 5.65 h, the “total protein half-life in vivo” value [11] was 4.45 h and the “total protein half-life in vivo” value [12] was 11.3 ± 3.7 h.
In the case of “MPRGLELLIAQTILQGFDAQYGRFLEVTSGAQQRFEQADWHAVQQAMKNRIHLYDHHVGLVVEQLRCITNGQSTDAAFLLRVKEHYTRLLPDYPRFEIAESFFNSVYCRLFDHRSLTPERLFIFSSQPERRFRTIPRPLAKDFHPDHGWESLLMRVISDLPLRLRWQNKSRDIHYIIRHLTETLGTDNLAESHLQVANELFYRNKAAWLVGKLITPSGTLPFLLPIHQTDDGELFIDTCLTTTAEASIVFGFARSYFMVYAPLPAALVEWLREILPGKTTAELYMAIGCQKHAKTESYREYLVYLQGCNEQFIEAPGIRGMVMLVFTLPGFDRVFKVIKDRFAPQKEMSAAHVRACYQLVKEHDRVGRMADTQEFENFVLEKRHISPALMELLLQEAAEKITDLGEQIVIRHLYIERRMVPLNIWLEQVEGQQLRDAIEEYGNAIRQLAAANIFPGDMLFKNFGVTRHGRVVFYDYDEICYMTEVNFRDIPPPRYPEDELASEPWYSVSPGDVFPEEFRHWLCADPRIGPLFEEMHADLFRADYWRALQNRIREGHVEDVYAYRRRQRFSVRYGEMLF”, the “total protein half-life in vivo” value [1] is reported as 4.97 h, the “total protein half-life in vivo” value [2] is reported as 3.61 h and the “total protein half-life in vivo” value [7] is reported as 6.35 ± 0.23 h. The “total protein half-life in vivo” value [8] was 10.7 ± 0.2 h and the “total protein half-life in vivo” value [12] was 11.9 h.
In the case of “MLGWVITCHDDRAQEILDALEKKHGALLQCRAVNFWRGLSSNMLSRMMCDALHEADSGEGVIFLTDIAGAPPYRVASLLSHKHSRCEVISGVTLPLIEQMMACRETMTSSEFRERIVELGAPEVSSLWHQQQKNPPFVLKHNLYEY”, the “total protein half-life in vivo” value [1] is reported as 4.15 h, the “total protein half-life in vivo” value [7] is reported as 0.895 h and the “total protein half-life in vivo” value [8] is reported as 0.859 h.
In the case of “MEFTTGLMSLDTALNEMLSRVTPLTAQETLPLVQCFGRILASDVVSPLDVPGFDNSAMDGYAVRLADIASGQPLPVAGKSFAGQPYHGEWPAGTCIRIMTGAPVPEGCEAVVMQEQTEQMDNGVRFTAEVRSGQNIRRRGEDISAGAVVFPAGTRLTTAELPVIASLGIAEVPVIRKVRVALFSTGDELQLPGQPLGDGQIYDTNRLAVHLMLEQLGCEVINLGIIRDDPHALRAAFIEADSQADVVISSGGVSVGEADYTKTILEELGEIAFWKLAIKPGKPFAFGKLSNSWFCGLPGNPVSATLTFYQLVQPLLAKLSGNTASGLPARQRVRTASRLKKTPGRLDFQRGVLQRNADGELEVTTTGHQGSHIFSSFSLGNCFIVLERDRGNVEVGEWVEVEPFNALFGGL”, the “total protein half-life in vivo” value [3] is reported as 4.41 ± 0.22 h, the “total protein half-life in vivo” value [4] is reported as 4.63 ± 0.21 h and the “total protein half-life in vivo” value [5] is reported as 4.88 ± 0.29 h. For the same sequence, the “total protein half-life in vivo” value [6] was 2.741 ± 0.013 h, the “total protein half-life in vivo” value [7] was 4.96 ± 0.85 h and the “total protein half-life in vivo” value [8] was 11.1 ± 0.4 h. For the same sequence, the “total protein half-life in vivo” value [9] was 4.07 ± 0.22 h, the “total protein half-life in vivo” value [10] was 7.4293 ± 0.003 h and the “total protein half-life in vivo” value [11] was 5.64 ± 0.34 h. The “total protein half-life in vivo” value [12] was 11.1 ± 1.6 h.
With “MFTATEAVPVAKVVAGNKRYPGVVALDNVNFTLNKGEVRALLGKNGAGKSTLIRMLTGSERPDSGDIWIGETRLEGDEATLTRRAAELGVRAVYQELSLVEGLTVAENLCLGQWPRRNGMIDYLQMAQDAQRCLQALGVDVSPEQLVSTLSPAQKQLVEIARVMKGEPRVVILDEPTSSLASAEVELVISAVKKMSALGVAVIYVSHRMEEIRRIASCATVMRDGQVAGDVMLENTSTHHIVSLMLGRDHVDIAPVAPQEIVDQAVLEVRALRHKPKLEDISFTLRRGEVLGIAGLLGAGRSELLKAIVGLEEYEQGEIVINGEKITRPDYGDMLKRGIGYTPENRKEAGIIPWLGVDENTVLTNRQKISANGVLQWSTIRRLTEEVMQRMTVKAASSETPIGTLSGGNQQKVVIGRWVYAASQILLLDEPTRGVDIEAKQQIYRIVRELAAEGKSVVFISSEVEELPLVCDRILLLQHGTFSQEFHAPVNVDELMSAILSVH” the “total protein half-life in vivo” value [8] was 7.2 ± 4.9 h and the “total protein half-life in vivo” value [11] was 4.92 h.
With “MATKLQDGNTPCLAATPSEPRPTVLVFDSGVGGLSVYDEIRHLLPDLHYIYAFDNVAFPYGEKSEAFIVERVVAIVTAVQERYPLALAVVACNTASTVSLPALREKFDFPVVGVVPAIKPAARLTANGIVGLLATRGTVKRSYTHELIARFANECQIEMLGSAEMVELAEAKLHGEDVSLDALKRILRPWLRMKEPPDTVVLGCTHFPLLQEELLQVLPEGTRLVDSGAAIARRTAWLLEHEAPDAKSADANIAFCMAMTPGAEQLLPVLQRYGFETLEKLAVLG” the “total protein half-life in vivo” value [1] was 5.25 ± 0.28 h, the “total protein half-life in vivo” value [2] was 4.4 ± 0.08 h and the “total protein half-life in vivo” value [3] was 4.32 ± 0.48 h. For the same sequence, the “total protein half-life in vivo” value [4] was 4.74 ± 0.2 h, the “total protein half-life in vivo” value [5] was 4.44 ± 0.14 h and the “total protein half-life in vivo” value [6] was 3.22 ± 0.32 h. For the same sequence, the “total protein half-life in vivo” value [7] was 5.49 ± 0.17 h, the “total protein half-life in vivo” value [9] was 4.54 ± 0.11 h and the “total protein half-life in vivo” value [10] was 7.85 ± 0.034 h. For the same sequence, the “total protein half-life in vivo” value [11] was 6.21 ± 0.3 h and the “total protein half-life in vivo” value [12] was 12.2 ± 0.2 h.
For “MQAIPMTLRGAEKLREELDFLKSVRRPEIIAAIAEAREHGDLKENAEYHAAREQQGFCEGRIKDIEAKLSNAQVIDVTKMPNNGRVIFGATVTVLNLDSDEEQTYRIVGDDEADFKQNLISVNSPIARGLIGKEEDDVVVIKTPGGEVEFEVIKVEYL [P0A6W5]”, the “total protein half-life in vivo” value [1] was 5.3 ± 0.11 h, the “total protein half-life in vivo” value [2] was 4.38 ± 0.77 h and the “total protein half-life in vivo” value [3] was 3.21 ± 0.12 h. For the same sequence, the “total protein half-life in vivo” value [4] was 3.76 ± 0.18 h, the “total protein half-life in vivo” value [5] was 2.44 ± 0.26 h and the “total protein half-life in vivo” value [6] was 2.57 ± 0.24 h. The “total protein half-life in vivo” value [7] was 4.48 ± 0.2 h, the “total protein half-life in vivo” value [8] was 6.41 ± 0.17 h and the “total protein half-life in vivo” value [9] was 3.27 ± 0.066 h. The “total protein half-life in vivo” value [10] was 4.46 ± 0.28 h, the “total protein half-life in vivo” value [11] was 3.75 ± 0.55 h and the “total protein half-life in vivo” value [12] was 6.8 ± 0.8 h.
In the case of “MINSPRVCIQVQSVYIEAQSSPDNERYVFAYTVTIRNLGRAPVQLLGRYWLITNGNGRETEVQGEGVVGVQPLIAPGEEYQYTSGAIIETPLGTMQGHYEMIDENGVPFSIDIPVFRLAVPTLIH”, the “total protein half-life in vivo” value [1] is reported as 6.35 ± 0.25 h, the “total protein half-life in vivo” value [2] is reported as 1.66 ± 0.39 h and the “total protein half-life in vivo” value [3] is reported as 0.615 h. For the same sequence, the “total protein half-life in vivo” value [4] was 1.4 h, the “total protein half-life in vivo” value [5] was 1.24 ± 0.41 h and the “total protein half-life in vivo” value [6] was 1.4 ± 0.14 h. The “total protein half-life in vivo” value [7] was 2.43 h, the “total protein half-life in vivo” value [8] was 3.11 ± 0.32 h and the “total protein half-life in vivo” value [9] was 1.65 h. For the same sequence, the “total protein half-life in vivo” value [10] was 1.98 h, the “total protein half-life in vivo” value [11] was 2.29 ± 0.19 h and the “total protein half-life in vivo” value [12] was 4.37 ± 0.13 h.
